Laboratory results published in publication PMC7245740, “Hydrogen peroxide-producing pyruvate oxidase from Lactobacillus delbrueckii is catalytically activated by phosphotidylethanolamine” (BMC Microbiology, 2020).
Values joined by “and” are separate entries in the source; they are usually repeats but may differ in a detail not shown here. Identical values can stand only once.

Assays:
[1] = biological target: Pyruvate oxidase (Pox) from Lactobacillus delbrueckii strain STYM1 (Lactobacillus delbrueckii STYM1); test: non-reducing SDS-PAGE; Coomassie stain of gel filtration fractions and of purified Pox after SDS-PAGE under non-reducing conditions; disulfide-linked dimer
[2] = biological target: Pyruvate oxidase (Pox) from Lactobacillus delbrueckii strain STYM1 (Lactobacillus delbrueckii STYM1); test: SEC; Superdex 200, 20 mM Bis-Tris pH 6, 150 mM NaCl, 0.5 mL/min; 840 ug purified Pox pre-incubated with 50 mM pyruvate, 300 uM TPP, 15 uM FAD for 10 min at room temperature; molecular weight from a standard curve of protein standards
Δ34 Pox = biological target: T1, Δ34 Pox (Lactobacillus delbrueckii, UniProt Q1G7Z6); test: fold activity relative to no phospholipid, same coupled assay; type: biochemical; conditions: activator; 50 mM pyruvate, 50 mM phosphate, 15 μM FAD, 300 μM TPP, pH 5.6, 25 °C; lipid suspension
T1 construct: gene pox1; C-terminal truncation lacking the last 34 residues, C-terminal His6, vector pFLAG-CTC, expressed in E. coli LOBSTR
T1 sequence (Q1G7Z6 1-582): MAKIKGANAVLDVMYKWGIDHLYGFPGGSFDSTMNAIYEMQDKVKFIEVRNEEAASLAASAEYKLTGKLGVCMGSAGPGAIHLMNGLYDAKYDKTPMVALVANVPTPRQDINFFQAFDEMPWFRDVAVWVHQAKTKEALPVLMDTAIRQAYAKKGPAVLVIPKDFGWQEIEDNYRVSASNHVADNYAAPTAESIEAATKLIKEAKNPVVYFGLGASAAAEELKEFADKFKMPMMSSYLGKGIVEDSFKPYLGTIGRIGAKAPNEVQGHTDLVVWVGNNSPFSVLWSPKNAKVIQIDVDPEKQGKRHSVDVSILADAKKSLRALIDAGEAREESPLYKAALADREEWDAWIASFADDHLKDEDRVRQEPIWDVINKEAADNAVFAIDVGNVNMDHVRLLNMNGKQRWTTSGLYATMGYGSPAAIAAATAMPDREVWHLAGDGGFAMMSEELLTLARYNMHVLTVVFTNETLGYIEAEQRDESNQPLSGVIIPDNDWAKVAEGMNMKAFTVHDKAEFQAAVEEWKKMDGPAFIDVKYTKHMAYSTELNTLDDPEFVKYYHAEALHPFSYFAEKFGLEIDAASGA

For “Pyruvate oxidase (Pox) from Lactobacillus delbrueckii strain STYM1 (enzyme)”, the stoichiometry N [1] was 2 and the stoichiometry N [2] was 10 and 5.

With `CCCCCCCC/C=C\CCCCCCCC(=O)O[C@H](COC(=O)CCCCCCCCCCCCCCC)COP(=O)(O)OCCN` [phosphotidylethanolamine (16:0–18:1)] the fold activity (Δ34 Pox) was ~ 2 fold.
